According to patent US20250333441A1, “POLYPEPTIDE INHIBITORS AND USES THEREOF” (Neuracle Science Co., Ltd., priority 2021, published 2025):

What was measured:
[1] = system: mouse primary hippocampal neurons; assay: Synapse formation (SYP, PSD95) in primary hippocampal neurons; assay type: cell-based; settings: 6 or 60 nM
Experimental: Next, it is generally known that neurites that outgrow from other neurites are capable of differentiating into axons, forming presynapses. Other neurites remain minor neurites and differentiate into dendrites, forming postsynapses. Therefore, whether the LRRC4B (453-576) protein fragment can also affect pre- and post-synaptic formation was also assessed. Briefly, mouse primary hippocampal neurons were cultured in vitro with the LRRC4B (453-576) protein fragment (6 or 60 nM). Control cells were treated with either DMSO (“Veh”) or the mutant LRRC4B (453-576) protein fragment which is not capable of binding to FAM19A5 protein (comprises alanine substitutions at positions 488 and 489). Then, at days 3 and 6 post initial culture, the expression level of synaptophysin (SYP; a presynaptic marker) was assessed. At day 7 post initial culture, the expression level of postsynaptic density 95 (PSD95; a postsynaptic marker) was assessed.
Primary hippocampal neurons were prepared from postnatal pups (postnatal day 1) of C57BL/6 (Nara Biotech, Seoul, Korea) as previously described by Beaudoin et al., Nature protocols 7(9): 1741-1754 (2012), which is incorporated herein by reference in its entirety. Briefly, cortices were dissected in Hank's buffered salt solution (HBSS) (Invitrogen, Carlsbad, CA, USA) and digested with 2.5% trypsin for 15 min at 37° C. […]

[2] = target: T1, FAM19A5 (isoform 2) - full-length LRRC4B protein complex (Homo sapiens, UniProt Q7Z5A7); assay: Immunofluorescence: dissociation of FAM19A5 from full-length LRRC4B in HEK293 cells; assay type: cell-based; settings: HEK293 cells expressing FAM19A5 isoform 2 and LRRC4B, treated 30 minutes
T1 construct: expressed in transfected cells; host or cells: HEK293
T1 sequence (Q7Z5A7 1-125 isoform Q7Z5A7-2, one chain of several): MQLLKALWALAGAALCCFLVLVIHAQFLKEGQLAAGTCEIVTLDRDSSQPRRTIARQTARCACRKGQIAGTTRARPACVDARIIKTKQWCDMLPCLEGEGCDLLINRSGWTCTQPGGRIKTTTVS
Experimental: Since LRRC4B protein fragments containing the binding domain described in Example 2 (e.g., LRRC4B (453-576); i.e., construct #11 in Table 6) was able to bind to FAM19A5 protein with high affinity, it was next assessed whether such protein fragments could compete with naturally existing LRRC4B protein for binding to FAM19A5 protein, and thereby, dissociate the FAM19A5-LRRC4 protein family complex. Briefly, HEK293 cells expressing both FAM19A5 isoform 2 and LRRC4B protein were treated (i.e., cultured in vitro) for 30 minutes with either LRRC4B (453-576)-hFc or mutant LRRC4B (453-576)-hFc (includes alanine substitutions at positions 488 and 489 of SEQ ID NO: 2; SEQ ID NO: 16) protein fragments. Then, the cells were immunostained with anti-FAM19A5 (1-65) and anti-LRRC4B antibodies to determine the expression of FAM19A5 and full-length LRRC4B proteins, respectively. The hFc-fused LRRC4B protein fragments were determined using an anti-hIgG antibody. The nuclei were stained with Hoechst 33342.

[3] = target: binding of FAM19A5 protein to full-length ectodomain of the LRRC4B protein (amino acids 36-576)-hFc (Homo sapiens, UniProt Q7Z5A7); assay: Competitive inhibition assay, plate coated with full-length LRRC4B ectodomain; settings: 100 nM coated ectodomain; FAM19A5 5 ng/mL; increasing concentrations
Chain of binding of FAM19A5 protein to full-length ectodomain of the LRRC4B protein (amino acids 36-576)-hFc (Q7Z5A7 44-132): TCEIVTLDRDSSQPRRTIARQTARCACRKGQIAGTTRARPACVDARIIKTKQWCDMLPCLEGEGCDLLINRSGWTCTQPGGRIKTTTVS
Experimental: Next, to further assess the role that the binding domain of the LRRC4B protein has on the interaction between FAM19A5 protein and members of the LRRC4 protein family, a competitive inhibition assay was used to determine whether different LRRC4B deletion constructs from Example 2 could inhibit the binding of FAM19A5 to the full-length ectodomain of the LRRC4B protein (i.e., amino acids 36-576 of SEQ ID NO: 2; SEQ ID NO: 5). Briefly, 100 nM of the full-length ectodomain of the LRRC4B protein was used to coat a plate, and then recombinant FAM19A5 protein (5 ng/mL) was added to the plate in combination with the following LRRC4B deletion constructs (increasing concentrations): (1) LRRC4B (453-576) (i.e., construct #11 in Table 6); (2) LRRC4B (453-576) mutant (comprises alanine substitutions at positions 488 and 489 of SEQ ID NO: 2; SEQ ID NO: 16); (3) LRRC4B (484-576) (i.e., construct #12 in Table 6); (4) LRRC4B (482-576); (5) LRRC4B (482-497); and (6) LRRC4B (498-576). The plates were incubated at 37° C., and then, the amount of FAM19A5 bound to the coated LRRC4B ectodomain protein was measured using H1RP-conjugated anti-FAM19A5 (1-65) antibody. […]

B1: LRRC4B (453-576): LRRC4B fragment, amino acids 453-576 of SEQ ID NO: 2 (SEQ ID NO: 7); used hFc-fused (protein)
chain: VSAVDPVAAGGTGSGGGGPGGSGGVGGGSGGYTYFTTVTVETLETQPGEEALQPRGTEKEPPGPTTDGVWGGGRPGDAAGPASSSTTAPAPRSSRPTEKAFTVPITDVTENALKDLDDVMKTTK
modifications: human Fc fusion in use
notes: used hFc-fused
In the case of B1, the “number of puncta colabeled with SYP and PSD95” value [1] is reported as “increased number of puncta”, the “dissociation of FAM19A5 from full-length LRRC4B protein” value [2] is reported as “FAM19A5 was largely dissociated from the full-length LRRC4B protein” and the “inhibition of FAM19A5 binding to coated full-length LRRC4B ectodomain protein” value [3] is reported as “able to inhibit FAM19A5 protein from binding”.
